Laboratory results taken from publication PMC8602370.
Where “and” joins values, the source holds several entries; their conditions need not be identical. Identical values can stand only once.

Columns and labels:
[1] = target: PARP1 (residues 1 to 1014), P09874; assay: SPR; biotinylated DNA SSB captured on a streptavidin chip, PARP1 (40 nM) flowed on to form a PARP1/DNA complex, then HPF1 injected at 62.5-2000 nM with 5 µM EB47 in the buffer; 25 mM HEPES pH 7.4, 250 mM NaCl, 0.1 mM TCEP, 1 mM EDTA, 0.05% Tween20; 1:1 model, steady-state plateaus and kinetic fit; conditions: remark: other sources report otherwise
Sequence of PARP1 (residues 1 to 1014), P09874 (P09874 whole entry, the tested form may be a part): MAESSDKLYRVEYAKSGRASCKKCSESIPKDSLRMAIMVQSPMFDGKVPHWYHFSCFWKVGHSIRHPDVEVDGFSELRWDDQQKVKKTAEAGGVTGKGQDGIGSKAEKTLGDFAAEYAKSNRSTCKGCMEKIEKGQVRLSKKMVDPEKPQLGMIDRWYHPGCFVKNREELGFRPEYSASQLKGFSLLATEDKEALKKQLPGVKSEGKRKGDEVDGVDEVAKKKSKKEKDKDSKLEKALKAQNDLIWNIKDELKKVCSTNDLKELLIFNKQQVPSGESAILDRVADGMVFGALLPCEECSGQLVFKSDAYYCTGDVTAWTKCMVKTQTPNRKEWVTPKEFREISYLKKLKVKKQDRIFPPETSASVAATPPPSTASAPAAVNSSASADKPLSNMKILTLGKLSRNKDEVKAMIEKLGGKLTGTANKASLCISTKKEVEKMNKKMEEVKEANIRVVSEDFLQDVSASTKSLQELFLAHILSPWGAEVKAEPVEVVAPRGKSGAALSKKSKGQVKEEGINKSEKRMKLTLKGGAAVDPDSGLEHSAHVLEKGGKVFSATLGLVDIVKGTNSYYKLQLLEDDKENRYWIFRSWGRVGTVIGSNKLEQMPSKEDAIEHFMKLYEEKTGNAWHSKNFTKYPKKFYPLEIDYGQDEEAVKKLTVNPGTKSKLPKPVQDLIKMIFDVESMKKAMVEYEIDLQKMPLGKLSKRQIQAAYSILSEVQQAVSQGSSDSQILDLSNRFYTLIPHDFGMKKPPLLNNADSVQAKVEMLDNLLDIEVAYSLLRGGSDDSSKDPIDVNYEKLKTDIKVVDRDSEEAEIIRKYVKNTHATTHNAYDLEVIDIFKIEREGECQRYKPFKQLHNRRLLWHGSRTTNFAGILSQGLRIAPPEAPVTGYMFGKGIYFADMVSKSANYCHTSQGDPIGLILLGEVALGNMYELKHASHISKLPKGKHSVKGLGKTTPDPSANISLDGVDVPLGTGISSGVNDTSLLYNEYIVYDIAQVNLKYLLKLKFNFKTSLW

[2] = target: PARP1 (residues 1 to 1014), P09874; assay: as above; conditions: remark: other sources report otherwise; remark: listed apart in the source

B1: Histone PARylation Factor 1 (HPF1), Q9NWY4 1-346 (natural protein)
chain: MVGGGGKRRPGGEGPQCEKTTDVKKSKFCEADVSSDLRKEVENHYKLSLPEDFYHFWKFCEELDPEKPSDSLSASLGLQLVGPYDILAGKHKTKKKSTGLNFNLHWRFYYDPPEFQTIIIGDNKTQYHMGYFRDSPDEFPVYVGINEAKKNCIIVPNGDNVFAAVKLFLTKKLREITDKKKINLLKNIDEKLTEAARELGYSLEQRTVKMKQRDKKVVTKTFHGAGLVVPVDKNDVGYRELPETDADLKRICKTIVEAASDEERLKAFAPIQEMMTFVQFANDECDYGMGLELGMDLFCYGSHYFHKVAGQLLPLAYNLLKRNLFAEIIEEHLANRSQENIDQLAA
Kd [1]: 480 nM and 617 nM | koff [1]: 0.071 s⁻¹ | kon [1]: 112000 M⁻¹ s⁻¹ | Kd [2]: 540 nM and 550 nM | koff [2]: 0.06 s⁻¹ | kon [2]: 100000 M⁻¹ s⁻¹
